We go through two proteins from paper PMC3245945 (Nucleic Acids Research, 2011).

Data set [1] deals with the molecule itself. Put plainly: atomic force microscopy.
Data set [2] deals with the molecule itself. Put plainly: SEC.
Data set [3] concerns the molecule itself. Put plainly: crystal structure.

B1: WHY2, Solanum tuberosum Whirly protein located in the mitochondria (natural protein, Solanum tuberosum (potato))
chain: ADAGKREGRVFAPYSVFKGKAALSAEPRLPTFNRLDSGGVKLNRRGVIMLTFWPSVGERKYDWEKRQLFALSATEVGSLISMGTRDSSEFFHDPSMLSSNAGQVRKSLSIKPNADGSGYFISLSVVNNNLKTNDRFTVPVTTAEFAVMRTAFSFALPHIMGWDRFTNRP
As for B1, the entries for the “stoichiometry N” value in data set [1] and in data set [2] were 24 and 4, respectively.

B2: WHY2 K67A (natural protein, Solanum tuberosum (potato))
chain: ADAGKREGRVFAPYSVFKGAAALSAEPRLPTFNRLDSGGVKLNRRGVIMLTFWPSVGERKYDWEKRQLFALSATEVGSLISMGTRDSSEFFHDPSMLSSNAGQVRKSLSIKPNADGSGYFISLSVVNNNLKTNDRFTVPVTTAEFAVMRTAFSFALPHIMGWDRFTNRP
Consider B2, for which the “stoichiometry N” value came out at 24 in data set [3] and 4 in data set [2].
